Test results as given in PMC2737084 (Biochemistry, 2009).

Target: the molecule itself
Test: SEC

B1: Pseudomonas aeruginosa bacterioferritin B (natural protein)
chain: not shown
For B1, the “stoichiometry N” value was 24.
